From the supplement of paper PMC11316812 come the findings set out here.

The subject of one data set is MCF7. The data set is described as follows: percentage of EdU-negative (G0-arrested) nuclei per well, 72 h; higher = more G0 arrest. To be noted: reference: sequence is the full UniProt precursor, the tested protein was the secreted form or ectodomain.
The next data set concerns hTERT-HMEC. Described as above. To be noted: reference: sequence is the full UniProt precursor, the tested protein was the secreted form or ectodomain.
Where [1] appears, read: protein concentration 0.0209225 µM.
The mark [2] stands for this setting: protein concentration 0.209225 µM.
Setting [3] is: protein concentration 0.0225 µM.
Where [4] appears, read: protein concentration 0.01655 µM.
The mark [5] stands for this setting: protein concentration 0.1655 µM.
Setting [6] is: protein concentration 0.0308571 µM.
The mark [7] stands for this setting: protein concentration 0.308571 µM.

± gives the standard deviation of the averaged measurements.
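Note: secreted proteins added to cultured cells, EdU pulse at the end, nuclei found by Hoechst imaging, EdU status from nuclear versus surrounding ring intensity ratio, PBS as neutral control.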

Turning to “MPGQELRTVNGSQMLLVLLVLSWLPHGGALSLAEASRASFPGPSELHSEDSRFRELRKRYEDLLTRLRANQSWEDSNTDLVPAPAVRILTPEVRLGSGGHLHLRISRAALPEGLPEASRLHRALFRLSPTASRSWDVTRPLRRQLSLARPQAPALHLRLSPPPSQSDQLLAESSSARPQLELHLRPQAARGRRRARARNGDHCPLGPGRCCRLHTVRASLEDLGWADWVLSPREVQVTMCIGACPSQFRAANMHAQIKTSLHRLKPDTVPAPCCVPASYNPMVLIQKTDTGVSLQTYDDLLAKDCHCI”, the “percentage of EdU-negative” value with MCF7 (setting [1]) is 23.8 ± 1.7%; with MCF7 (setting [2]) it was 30.5 ± 2.1%; in the data set with hTERT-HMEC (setting [1]), 4.78 ± 0.13%; in the data set on hTERT-HMEC (setting [2]) it was 8.07 ± 2.2%.
“MPGRSCVALVLLAAAVSCAVAQHAPPWTEDCRKSTYPPSGPTYRGAVPWYTINLDLPPYKRWHELMLDKAPVLKVIVNSLKNMINTFVPSGKIMQVVDEKLPGLLGNFPGPFEEEMKGIAAVTDIPLGEIISFNIFYELFTICTSIVAEDKKGHLIHGRNMDFGVFLGWNINNDTWVITEQLKPLTVNLDFQRNNKTVFKASSFAGYVGMLTGFKPGLFSLTLNERFSINGGYLGILEWILGKKDVMWIGFLTRTVLENSTSYEEAKNLLTKTKILAPAYFILGGNQSGEGCVITRDRKESLDVYELDAKQGRWYVVQTNYDRWKHPFFLDDRRTPAKMCLNRTSQENISFETMYDVLSTKPVLNKLTVYTTLIDVTKGQFETYLRDCPDPCIGW”: the “percentage of EdU-negative” value in the data set with MCF7 (setting [3]) came out at 26.7 ± 2.9%; with MCF7 (protein concentration 0.225 µM) it was 26.1 ± 0.96%; in the data set with hTERT-HMEC (setting [3]), 4.75 ± 0.61%; with hTERT-HMEC (protein concentration 0.225 µM) it was 12.9 ± 1.1%.
Regarding “MPGSPRPAPSWVLLLRLLALLRPPGLGEACSCAPAHPQQHICHSALVIRAKISSEKVVPASADPADTEKMLRYEIKQIKMFKGFEKVKDVQYIYTPFDSSLCGVKLEANSQKQYLLTGQVLSDGKVFIHLCNYIEPWEDLSLVQRESLNHHYHLNCGCQITTCYTVPCTISAPNECLWTDWLLERKLYGYQAQHYVCMKHVDGTCSWYRGHLPLRKEFVDIVQP”, the “percentage of EdU-negative” value is 26.2 ± 1.7% with MCF7 (setting [4]), 27.1 ± 0.65% in the data set with MCF7 (setting [5]), 5.41 ± 0.19% with hTERT-HMEC (setting [4]) and 6.76 ± 0.1% in the data set on hTERT-HMEC (setting [5]).
Consider “MPKGRQKVPHLDAPLGLPTCLWLELAGLFLLVPWVMGLAGTGGPDGQGTGGPSWAVHLESLEGDGEEETLEQQADALAQAAGLVNAGRIGELQGHYLFVQPAGHRPALEVEAIRQQVEAVLAGHEAVRWHSEQRLLRRAKRSVHFNDPKYPQQWHLNNRRSPGRDINVTGVWERNVTGRGVTVVVVDDGVEHTIQDIAPNYSPEGSYDLNSNDPDPMPHPDVENGNHHGTRCAGEIAAVPNNSFCAVGVAYGSRIAGIRVLDGPLTDSMEAVAFNKHYQINDIYSCSWGPDDDGKTVDGPHQLGKAALQHGVIAGRQGFGSIFVVASGNGGQHNDNCNYDGYANSIYTVTIGAVDEEGRMPFYAEECASMLAVTFSGGDKMLRSIVTTDWDLQKGTGCTEGHTGTSAAAPLAAGMIALMLQVRPCLTWRDVQHIIVFTATRYEDRRAEWVTNEAGFSHSHQHGFGLLNAWRLVNAAKIWTSVPYLASYVSPVLKENKAIPQSPRSLEVLWNVSRMDLEMSGLKTLEHVAVTVSITHPRRGSLELKLFCPSGMMSLIGAPRSMDSDPNGFNDWTFSTVRCWGERARGTYRLVIRDVGDESFQVGILRQWQLTLYGSVWSAVDIRDRQRLLESAMSGKYLHDDFALPCPPGLKIPEEDGYTITPNTLKTLVLVGCFTVFWTVYYMLEVYLSQRNVASNQVCRSGPCHWPHRSRKAKEEGTELESVPLCSSKDPDEVETESRGPPTTSDLLAPDLLEQGDWSLSQNKSALDCPHQHLDVPHGKEEQIC”, for which the “percentage of EdU-negative” value was 25.2 ± 2.4% in the data set with MCF7 (setting [3]), 25.9 ± 0.42% in the data set on MCF7 (protein concentration 0.225 µM), 4.85 ± 0.1% with hTERT-HMEC (setting [3]) and 5.83 ± 0.0087% in the data set with hTERT-HMEC (protein concentration 0.225 µM).
With “MPLGLLWLGLALLGALHAQAQDSTSDLIPAPPLSKVPLQQNFQDNQFQGKWYVVGLAGNAILREDKDPQKMYATIYELKEDKSYNVTSVLFRKKKCDYWIRTFVPGCQPGEFTLGNIKSYPGLTSYLVRVVSTNYNQHAMVFFKKVSQNREYFKITLYGRTKELTSELKENFIRFSKSLGLPENHIVFPVPIDQCIDG”, the “percentage of EdU-negative” value was determined as 26.8 ± 1.9% in the data set with MCF7 (setting [6]), 28.2 ± 1.9% in the data set on MCF7 (setting [7]), 4.56 ± 0.62% with hTERT-HMEC (setting [6]) and 8.76 ± 0.27% in the data set with hTERT-HMEC (setting [7]).
